# Like-named read-outs stand apart in the source and are kept apart here.
# T1: human CD73 on SK-OV-3 cells (human ovarian adenocarcinoma cells) (human, UniProt P21589 27-549)
# T1 construct: whole, on cells; also called human CD73 positive cells
# T1 sequence (looked up): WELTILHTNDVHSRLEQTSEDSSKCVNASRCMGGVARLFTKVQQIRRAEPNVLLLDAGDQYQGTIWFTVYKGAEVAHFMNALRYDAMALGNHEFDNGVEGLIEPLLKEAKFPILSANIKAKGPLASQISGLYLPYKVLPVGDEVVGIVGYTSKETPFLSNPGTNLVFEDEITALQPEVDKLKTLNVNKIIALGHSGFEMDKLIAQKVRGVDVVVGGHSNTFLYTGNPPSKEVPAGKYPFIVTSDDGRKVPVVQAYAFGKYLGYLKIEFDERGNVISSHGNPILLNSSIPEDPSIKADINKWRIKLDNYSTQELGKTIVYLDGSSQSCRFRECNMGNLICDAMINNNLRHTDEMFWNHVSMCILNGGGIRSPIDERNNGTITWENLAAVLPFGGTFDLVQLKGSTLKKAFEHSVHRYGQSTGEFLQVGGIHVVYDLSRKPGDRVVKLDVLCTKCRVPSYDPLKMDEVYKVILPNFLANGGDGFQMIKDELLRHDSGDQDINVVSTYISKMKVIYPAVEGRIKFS
# T2: monkey CD73 on CHOK1-cynoCD73 cells (monkey, UniProt A0A2K5V5U7 27-549, GPI anchor at the C-terminus of the mature chain (paragraph 3 says CD73 is GPI-anchored). The propeptide 550-574 is removed.)
# T2 construct: also called CHOK1-cyno73 cells; monkey CD73 positive cells
# T2 sequence: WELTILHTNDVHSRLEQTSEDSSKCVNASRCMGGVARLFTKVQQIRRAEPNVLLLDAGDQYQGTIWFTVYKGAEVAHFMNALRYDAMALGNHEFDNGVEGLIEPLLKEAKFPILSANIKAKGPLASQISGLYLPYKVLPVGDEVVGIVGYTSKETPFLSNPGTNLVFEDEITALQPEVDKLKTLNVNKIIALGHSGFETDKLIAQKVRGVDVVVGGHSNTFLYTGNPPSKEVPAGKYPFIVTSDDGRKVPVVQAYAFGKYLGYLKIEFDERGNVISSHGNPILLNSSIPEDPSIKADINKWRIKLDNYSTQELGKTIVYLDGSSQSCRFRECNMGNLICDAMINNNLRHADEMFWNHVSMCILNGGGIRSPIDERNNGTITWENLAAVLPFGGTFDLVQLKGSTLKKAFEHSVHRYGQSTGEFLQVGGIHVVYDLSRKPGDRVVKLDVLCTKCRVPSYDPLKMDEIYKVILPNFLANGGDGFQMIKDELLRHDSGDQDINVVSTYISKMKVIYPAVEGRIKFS
# T3: recombinant human CD73 protein (human, UniProt P21589 27-547, limits assumed)
# T3 construct: Bought recombinant protein; the assays only say recombinant human CD73; also called rhCD73; recombinant hCD73 protein
# T3 sequence (looked up): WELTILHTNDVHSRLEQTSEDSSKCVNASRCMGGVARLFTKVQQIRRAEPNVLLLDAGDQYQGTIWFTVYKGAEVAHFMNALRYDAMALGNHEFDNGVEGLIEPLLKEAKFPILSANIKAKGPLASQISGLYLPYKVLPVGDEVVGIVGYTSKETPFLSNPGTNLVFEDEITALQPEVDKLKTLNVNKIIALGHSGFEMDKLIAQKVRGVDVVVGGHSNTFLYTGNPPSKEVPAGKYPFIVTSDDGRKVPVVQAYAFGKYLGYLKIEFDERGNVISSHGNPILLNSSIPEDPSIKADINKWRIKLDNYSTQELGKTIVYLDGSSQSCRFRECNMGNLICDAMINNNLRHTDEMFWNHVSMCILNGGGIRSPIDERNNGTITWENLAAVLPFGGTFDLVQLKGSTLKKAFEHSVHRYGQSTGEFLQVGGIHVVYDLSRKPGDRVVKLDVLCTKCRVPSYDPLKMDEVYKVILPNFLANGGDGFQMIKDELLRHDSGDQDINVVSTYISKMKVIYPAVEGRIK
# T4: recombinant monkey CD73 protein (monkey, UniProt A0A2K5V5U7 27-549)
# T4 construct: Monkey species not further named for the recombinant protein (the cell line is called cynoCD73)
# T4 sequence: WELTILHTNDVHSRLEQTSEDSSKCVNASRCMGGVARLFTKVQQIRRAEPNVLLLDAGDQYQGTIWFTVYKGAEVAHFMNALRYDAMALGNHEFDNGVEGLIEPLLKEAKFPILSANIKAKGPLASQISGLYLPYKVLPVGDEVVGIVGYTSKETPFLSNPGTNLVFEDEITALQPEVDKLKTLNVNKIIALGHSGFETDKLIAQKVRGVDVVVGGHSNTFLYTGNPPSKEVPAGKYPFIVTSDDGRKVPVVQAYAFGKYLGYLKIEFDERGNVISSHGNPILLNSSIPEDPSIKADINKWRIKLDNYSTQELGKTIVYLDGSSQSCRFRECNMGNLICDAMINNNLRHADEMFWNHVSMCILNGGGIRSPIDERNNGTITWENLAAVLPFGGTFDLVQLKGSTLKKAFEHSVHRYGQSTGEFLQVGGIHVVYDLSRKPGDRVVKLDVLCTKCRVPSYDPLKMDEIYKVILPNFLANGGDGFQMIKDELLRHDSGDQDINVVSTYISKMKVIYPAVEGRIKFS
# Legend:
# [1] = biological target: T1, human CD73 on SK-OV-3 cells (human …); assay: flow cytometry on SK-OV-3 cells
# [2] = biological target: T2, monkey CD73 on CHOK1-cynoCD73 cells; assay: flow cytometry on CHOK1-cynoCD73 cells
# Source text: The full length of monkey CD73 was constructed on a eukaryotic expression vector containing NEO resistance, CHO-K1 cells were transfected, G418 was used for screening to obtain a CHOK1-cynoCD73 cell strain.
# [3] = biological target: T1, human CD73 on SK-OV-3 cells (human …); assay: flow cytometry on SK-OV-3 cells, anti-hFc-APC
# [4] = biological target: T3, recombinant human CD73 protein; assay: ELISA, recombinant human CD73 coated at 3 ug/mL
# [5] = biological target: T4, recombinant monkey CD73 protein; assay: ELISA, recombinant monkey CD73 coated at 3 ug/mL
# Source text: (§1) The combination of antibody and the recombinant monkey CD73 was detected by an ELISA method, and the result is shown in FIG. 8B.
# [6] = biological target: T3, recombinant human CD73 protein; assay: ELISA, plate coated with recombinant human CD73 at 3 µg/mL
# [7] = biological target: T4, recombinant monkey CD73 protein; assay: ELISA, plate coated with recombinant monkey CD73 at 3 µg/mL
# Source text: as §1
# [8] = biological target: T3, recombinant human CD73 protein; assay: ELISA, recombinant human CD73
# [9] = biological target: T4, recombinant monkey CD73 protein; assay: ELISA, recombinant monkey CD73
# [10] = biological target: T1, human CD73 on SK-OV-3 cells (human …); assay: flow cytometry on SK-OV-3 cells; remark: listed apart in the source
# [11] = biological target: T2, monkey CD73 on CHOK1-cynoCD73 cells; assay: flow cytometry on CHOK1-cynoCD73 cells; remark: listed apart in the source
# [12] = biological target: T2, monkey CD73 on CHOK1-cynoCD73 cells; assay: flow cytometry on CHOK1-cynoCD73 cells; remark: listed apart in the source
# [13] = biological target: T1, human CD73 on SK-OV-3 cells (human …); assay: flow cytometry on SK-OV-3 cells, anti-hFc-APC; remark: listed apart in the source
# [14] = biological target: T3, recombinant human CD73 protein; assay: ELISA, recombinant human CD73 coated at 3 ug/mL; remark: listed apart in the source
# [15] = biological target: T4, recombinant monkey CD73 protein; assay: ELISA, recombinant monkey CD73 coated at 3 ug/mL; remark: listed apart in the source
EC50 [1] [µg/mL],EC50 [2] [µg/mL],EC50 (read off the curve) [2] [µg/mL],EC50 (read off the curve) [3] [µg/mL],EC50 (read off the curve) [4] [µg/mL],EC50 (read off the curve) [5] [µg/mL],EC50 [6] [µg/mL],EC50 [7] [µg/mL],EC50 [8] [µg/mL],EC50 [9] [µg/mL],EC50 [10] [µg/mL],EC50 [11] [µg/mL],EC50 (read off the curve) [12] [µg/mL],EC50 (read off the curve) [13] [µg/mL],EC50 (read off the curve) [14] [µg/mL],EC50 (read off the curve) [15] [µg/mL],Binder
,,,,,,,,0.387,0.734,0.0234,0.0154,~0.02,~0.02,,,"humanized CQ137 monoclonal antibody (137-5) (antibody, V domains shown) VH: QVQLVQSGAEVKKPGSSVKVSCKASGYSFTGYYIHWVRQAPGQGLEWMGRINPYNGATTYNQNFKDRVTITVDKSTSTAYMELSSLRSEDTAVYYCARFHYGAADYWGQGTLVTVSS VL: DIQMTQSPSSLSASVGDRVTITCKASQDINTYLTWYQQKPGKAPKTLIYRANILVDGVPSRFSGSGSGTDFTLTISSLQPEDFATYYCLQYNEFPLTFGGGTKVEIKR"
,,,,,,,,0.5,6.57,0.0301,0.0239,~0.02,,,,"humanized CQ137 monoclonal antibody (137-7) (antibody, V domains shown) VH: QVQLVQSGAEVKKPGSSVKVSCKASGYSFTGYYIHWVRQAPGQGLEWMGRINPYNGATTYNQNFKDRVTITVDKSTSTAYMELSSLRSEDTAVYYCARFHYGAPNYWGQGTLVTVSS VL: DIQMTQSPSSLSASVGDRVTITCKASQDINTYLTWYQQKPGKAPKTLIYRANILVDGVPSRFSGSGSGTDFTLTISSLQPEDFATYYCLQYDDFPLTFGGGTKVEIKR"
,,,,,,,,0.446,3.76,0.0331,0.0193,~0.02,~0.03,~0.4,,"humanized CQ137 monoclonal antibody (137-9) (antibody, V domains shown) VH: QVQLVQSGAEVKKPGSSVKVSCKASGYSFTGYYIHWVRQAPGQGLEWMGRINPYNGATTYNQNFKDRVTITVDKSTSTAYMELSSLRSEDTAVYYCARFHYGAPDLWGQGTLVTVSS VL: DIQMTQSPSSLSASVGDRVTITCKASQDINTYLTWYQQKPGKAPKTLIYRANILVDGVPSRFSGSGSGTDFTLTISSLQPEDFATYYCLQYDAFPLTFGGGTKVEIKR"
,,,,,,,,0.312,3.76,0.00487,0.00782,~0.008,~0.005,~0.3,,"humanized CQ137 monoclonal antibody (137-8) (antibody, V domains shown) VH: QVQLVQSGAEVKKPGSSVKVSCKASGYSFTGYYIHWVRQAPGQGLEWMGRINPYNGATTYNQNFKDRVTITVDKSTSTAYMELSSLRSEDTAVYYCARFHYGAPDFWGQGTLVTVSS VL: DIQMTQSPSSLSASVGDRVTITCKASQDINTYLTWYQQKPGKAPKTLIYRANILVDGVPSRFSGSGSGTDFTLTISSLQPEDFATYYCLQYDQFPLTFGGGTKVEIKR"

# The next lines start with the binder.
Binder,EC50 [1] [µg/mL],EC50 [2] [µg/mL],EC50 (read off the curve) [2] [µg/mL],EC50 (read off the curve) [3] [µg/mL],EC50 (read off the curve) [4] [µg/mL],EC50 (read off the curve) [5] [µg/mL],EC50 [6] [µg/mL],EC50 [7] [µg/mL],EC50 [8] [µg/mL],EC50 [9] [µg/mL],EC50 [10] [µg/mL],EC50 [11] [µg/mL],EC50 (read off the curve) [12] [µg/mL],EC50 (read off the curve) [13] [µg/mL],EC50 (read off the curve) [14] [µg/mL],EC50 (read off the curve) [15] [µg/mL]
"humanized CQ137 monoclonal antibody (137-3) (antibody, V domains shown) VH: QVQLVQSGAEVKKPGSSVKVSCKASGYSFTGYYIHWVRQAPGQGLEWMGRINPYNGATTYNQNFKDRVTITVDKSTSTAYMELSSLRSEDTAVYYCARFHYGAPDYWGQGTLVTVSS VL: DIQMTQSPSSLSASVGDRVTITCKASQDINTYLTWYQQKPGKAPKTLIYRANILVDGVPSRFSGSGSGTDFTLTISSLQPEDFATYYCLQYDEFPLTFGGGTKVEIKR",7.03,0.0403,~0.04,~0.003,~0.3,~0.2,0.331,0.202,,,,,,,,
"humanized CQ137 monoclonal antibody (137-4) (antibody, V domains shown) VH: QVQLVQSGAEVKKPGSSVKVSCKASGYSFTGYYIHWVRQAPGQGLEWMGRINPYNGATTYNQNFKDRVTITVDKSTSTAYMELSSLRSEDTAVYYCARFHYGAVDYWGQGTLVTVSS VL: DIQMTQSPSSLSASVGDRVTITCKASQDINTYLTWYQQKPGKAPKTLIYRANILVDGVPSRFSGSGSGTDFTLTISSLQPEDFATYYCLQYEEFPLTFGGGTKVEIKR",,,,,,,,,0.262,0.352,0.00307,0.00831,~0.008,~0.003,~0.3,~0.4
"humanized CQ137 monoclonal antibody (137-2) (antibody, V domains shown) VH: QVQLVQSGAEVKKPGASVKVSCKASGYSFTGYYIHWVRQAPGQGLEWMGRINPYNGATTYNQNFKDRVTMTVDKSTSTAYMELRSLRSDDTAVYYCARFHYGAPDYWGQGTLVTVSS VL: DIQMTQSPSSLSASVGDRVTITCKASQDINTYLTWFQQKPGKAPKSLIYRANILVDGVPSRFSGSGSGTDFTLTISSLQPEDFATYYCLQYDEFPLTFGGGTKVEIKR",3.26,0.0233,~0.02,~0.007,~0.3,~0.3,0.275,0.313,,,,,,,,
"humanized CQ137 monoclonal antibody (137-1) (antibody, V domains shown) VH: QVQLVQSGAEVKKPGASVKVSCKASGYTFTGYYIHWVRQAPGQGLEWMGRINPYNGATTYNQNFKDRVTMTVDKSTSTAYMELRSLRSDDTAVYYCARFHYGAPDYWGQGTLVTVSS VL: DIQMTQSPSSLSASVGDRVTITCKASQDINTYLTWFQQKPGKAPKTLIYRANILVDGVPSRFSGSGSGQDYTLTISSLQPEDFATYYCLQYDEFPLTFGGGTKVEIKR",2.13,0.0862,~0.09,~0.002,~0.3,,0.258,3.76,,,,,,,,
